The assay has as its target EphA2 (co-transfected with Anks1a constructs) (UniProt P29317). The assay can be described thus: not stated; interaction in co-transfected cells, quantified against WT Anks1a (Supplementary Fig. 5f,g).

For 1 substance, binding relative to WT Anks1a results are on record in article PMC5027278.

Chain of UniProt P29317 (P29317 24-976): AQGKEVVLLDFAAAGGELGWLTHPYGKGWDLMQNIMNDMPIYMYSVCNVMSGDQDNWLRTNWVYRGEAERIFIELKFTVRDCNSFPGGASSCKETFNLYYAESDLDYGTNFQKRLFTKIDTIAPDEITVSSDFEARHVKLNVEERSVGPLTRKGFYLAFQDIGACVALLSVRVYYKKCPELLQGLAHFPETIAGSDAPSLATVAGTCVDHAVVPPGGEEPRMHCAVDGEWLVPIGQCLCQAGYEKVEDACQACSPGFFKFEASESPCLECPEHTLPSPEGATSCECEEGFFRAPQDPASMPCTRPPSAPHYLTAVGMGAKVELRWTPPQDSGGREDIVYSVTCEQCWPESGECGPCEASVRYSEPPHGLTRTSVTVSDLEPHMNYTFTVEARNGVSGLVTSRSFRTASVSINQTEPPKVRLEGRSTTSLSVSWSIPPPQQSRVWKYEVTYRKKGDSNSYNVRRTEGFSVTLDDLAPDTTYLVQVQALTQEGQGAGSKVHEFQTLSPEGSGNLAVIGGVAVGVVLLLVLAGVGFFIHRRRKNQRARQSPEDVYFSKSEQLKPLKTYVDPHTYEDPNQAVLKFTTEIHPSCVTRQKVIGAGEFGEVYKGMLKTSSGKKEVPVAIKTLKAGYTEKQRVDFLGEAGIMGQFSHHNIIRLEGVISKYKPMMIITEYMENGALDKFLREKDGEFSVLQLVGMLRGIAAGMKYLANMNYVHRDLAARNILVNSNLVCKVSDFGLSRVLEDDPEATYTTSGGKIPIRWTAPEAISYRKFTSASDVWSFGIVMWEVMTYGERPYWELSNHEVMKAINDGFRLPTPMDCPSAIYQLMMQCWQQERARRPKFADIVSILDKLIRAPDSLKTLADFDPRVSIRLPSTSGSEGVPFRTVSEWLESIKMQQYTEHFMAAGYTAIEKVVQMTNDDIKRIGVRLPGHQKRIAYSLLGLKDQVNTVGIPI

Substance “Anks1a-S647A/S663A double mutant (Ser DM) (natural protein)” gave a binding relative to WT Anks1a of 50%.
